Source: patent publication US20090175847A1

Key:
[1] = target: Aβ(1-42) monomer (human); experiment: dot blot densitometry; antigen: Aβ(1-42) monomer, 0.1% NH4OH; the dot is read as a thousands separator (no dot in column 1 of panel A)
[2] = target: Aβ(20-42) globulomer (human); experiment: dot blot densitometry; antigen: Aβ(20-42) globulomer (the reference of the ratio)
[3] = target: Aβ(1-40) monomer (human); experiment: dot blot densitometry; antigen: Aβ(1-40) monomer, 0.1% NH4OH; the dot is read as a thousands separator
Aβ(1-40) monomer (human), sequence (peptide, as listed by the source): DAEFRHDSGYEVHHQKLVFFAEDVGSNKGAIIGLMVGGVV

[4] = target: Aβ(1-42) globulomer (human) (UniProt P05067); experiment: dot blot densitometry; antigen: Aβ(1-42) globulomer
Aβ(1-42) globulomer (human), sequence (P05067 672-713 limits assumed): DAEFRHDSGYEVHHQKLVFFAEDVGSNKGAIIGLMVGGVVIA

[5] = target: Aβ(1-42) fibrils (human) (UniProt P05067); experiment: dot blot densitometry; antigen: Aβ(1-42) fibril; the dot is read as a thousands separator
Aβ(1-42) fibrils (human), sequence (P05067 672-713 limits assumed): as above

Aβ(1-42) monomer (human), sequence (peptide, as listed by the source): as the sequence (P05067 672-713 limits assumed) above
Aβ(20-42) globulomer (human), sequence (peptide, as listed by the source): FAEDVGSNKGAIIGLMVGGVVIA

relation between recognition of Aβ(20-42) globulomer and the respective Aβ form [1]: 10400
relation between recognition of Aβ(20-42) globulomer and the respective Aβ form [2]: 1
relation between recognition of Aβ(20-42) globulomer and the respective Aβ form [3]: > 10000
relation between recognition of Aβ(20-42) globulomer and the respective Aβ form [4]: 17
relation between recognition of Aβ(20-42) globulomer and the respective Aβ form [5]: > 10000
B1: humanized antibody 5F7hum8 (antibody, IgG1, V domains shown)
VH: EVQLVQSGAEVKKPGASVKVSCKASGYTFTTFYIHWVRQAPGQGLEWIGMIGPGSGNTYYNEMFKDKATLTVDTSTSTAYMELSSLRSEDTAVYYCARAKSARAAWFAYWGQGTLVTVSS
VL: DIVMTQSPLSLPVTPGEPASISCRSSQSVVQSNGNTYLEWYLQKPGQSPQLLIYKVSNRFSGVPDRFSGSGSGTDFTLKISRVEAEDVGVYYCFQGSHVPPTFGGGTKVEIKR
